Experiments:
[1] = system: PPO-deficient Escherichia coli (ΔhemG); assay: PPO-deficient E. coli (ΔhemG) transformed by corn ZmPPO1 mutant genes, growth on LB medium containing compound A; assay type: cell-based; conditions: compound A 5 μM
Protocol: To verify whether the mutation of the PPO1-conserved protein motif LLLNYI in other plants could also confer resistance to herbicides, the mutation combination of leucine residues at the third position and tyrosine residues at the fifth position in the protein motif LLLNYI was carried out by using the same method as described in the above examples and screened by using of the LB medium containing herbicidal compound A, and the growth inhibition was observed.

Arabidopsis thaliana = assay: Herbicide resistance test of Arabidopsis thaliana seeds overexpressing crop PPO1 WT or mutant on MS medium; assay type: in vivo; conditions: overexpressed in Arabidopsis thaliana seed
Protocol: 1) Sowing: plump and vernalized wild-type Arabidopsis thaliana seeds were selected, treated with 75% alcohol for 1 minute, disinfected with 10% NaClO for 6 minutes, and washed with sterile water for 5 to 6 times. After the sterilization was completed, the seeds were placed on a MS medium plate for one week, then transplanted to sterilized nutrient soil (nutrient soil:vermiculite=1:1) and cultured in a greenhouse at (25±2) ° C. with a photoperiod of 16 h/8 h (light/dark).
4) Infestation of Arabidopsis thaliana inflorescences: the uninfected Arabidopsis thaliana with good growth state and lush inflorescences were selected for infection and their fruit pods were cut off from the plants by scissors prior to transformation. The Arabidopsis thaliana inflorescences were dipped in the prepared infection solution for 0.5 to 1 minute. Then the infected Arabidopsis thaliana seedlings were placed in dark and humid conditions for 24 hours. After one week, the infection was repeated.
After the transformation of dipped Arabidopsis thaliana inflorescences, Arabidopsis thaliana TO-generation seeds were collected and sowed on a resistant MS plate containing 30 mg/L hygromycin to screen positive plants.
The obtained overexpressed mutant and wild-type Arabidopsis thaliana seeds of different crops were tested for resistance on a MS medium (petri dish) containing different concentrations of PPO-inhibiting herbicidal compounds, as shown in FIG. 12-23.

[2] = system: PPO-deficient Escherichia coli (ΔhemG); assay: PPO-deficient E. coli (ΔhemG) transformed by rice OsPPO1 mutant genes, growth on LB medium containing herbicide; conditions: 500 nM compound A
[3] = system: Huaidao No. 5 rice seedlings; assay type: in vivo
Protocol: Rice seeds were peeled, washed with sterile water as many times as needed until the washing water became clear. Then the seeds were disinfected with 70% alcohol for 30 seconds and then with 5% sodium hypochlorite. The seeds were cultivated in a horizontal shaker for 20 minutes, disinfected with sodium hypochlorite and washed with sterile water for 5 times, placed on a sterile absorbent paper to air-dry the surface moisture of the seeds, and inoculated in an induction medium to cultivate the callus at 28° C. • 4) Infection of rice callus with Agrobacterium: the Huaidao No. 5 callus with a diameter of 3 mm was selected for sub-cultivation for 10 days and the callus was collected into a 50 ml centrifuge tube. […]

[4] = different concentrations of compound A
[5] = different concentrations of flumioxazin
[6] = different concentrations of saflufenacil

Row | Molecule | growth of ΔhemG transformant on plates containing compound A, compared with ZmPPO1-WT [1] | tolerance to compound A compared with wild-type Arabidopsis thaliana (Arabidopsis thaliana; [4]) | tolerance to flumioxazin compared with wild-type Arabidopsis thaliana (Arabidopsis thaliana; [5]) | tolerance to saflufenacil compared with wild-type Arabidopsis thaliana (Arabidopsis thaliana; [6]) | other results
1 | L424S/Y426V (protein, Amino-acid sequence of PPO1 form corn mutant (ZmPPO1 L424S/Y426V)) MVAATATATAMATAASPLLNGTRIPARLRHRGLSVRCAAVAGGAAEAPASTGARLSADCVVVGGGISGLCTAQALATRHGVGDVLVTEARARPGGNITTVERPEEGYLWEEGPNSFQPSDPVLTMAVDSGLKDDLVFGDPNAPRFVLWEGKLRPVPSKPADLPFFDLMSIPGKLRAGLGALGIRPPPPGREESVEEFVRRNLGAEVFERLIEPFCSGVYAGDPSKLSMKAAFGKVWRLEETGGSIIGGTIKTIQERSKNPKPPRDARLPKPKGQTVASFRKGLAMLPNAITSSLGSKVKLLWKLTSITKSDDKGYVLEYETPEGVVSVQAKSVIMTIPSYVASNILRPLSSDAADALSRFYYPPVAAVTVSYPKEAIRKECLIDGELQGFGQLHPRSQGVETLGTIYSSSLFPNRAPDGRVLLSNVIGGATNTGIVSKTESELVEAVDRDLRKMLINSTAVDPLVLGVRVWPQAIPQFLVGHLDLLEAAKAALDRGGYDGLFLGGNYVAGVALGRCVEGAYESASQISDFLTKYAYK | grew normally without an inhibition | – | – | – | –
2 | ZmPPO1 L424W/Y426L: Amino-acid sequence of PPO1 from corn mutant (protein, Amino-acid sequence of PPO1 from corn mutant (ZmPPO1 L424W/Y426L)) MVAATATATAMATAASPLLNGTRIPARLRHRGLSVRCAAVAGGAAEAPASTGARLSADCVVVGGGISGLCTAQALATRHGVGDVLVTEARARPGGNITTVERPEEGYLWEEGPNSFQPSDPVLTMAVDSGLKDDLVFGDPNAPRFVLWEGKLRPVPSKPADLPFFDLMSIPGKLRAGLGALGIRPPPPGREESVEEFVRRNLGAEVFERLIEPFCSGVYAGDPSKLSMKAAFGKVWRLEETGGSIIGGTIKTIQERSKNPKPPRDARLPKPKGQTVASFRKGLAMLPNAITSSLGSKVKLLWKLTSITKSDDKGYVLEYETPEGVVSVQAKSVIMTIPSYVASNILRPLSSDAADALSRFYYPPVAAVTVSYPKEAIRKECLIDGELQGFGQLHPRSQGVETLGTIYSSSLFPNRAPDGRVLLWNLIGGATNTGIVSKTESELVEAVDRDLRKMLINSTAVDPLVLGVRVWPQAIPQFLVGHLDLLEAAKAALDRGGYDGLFLGGNYVAGVALGRCVEGAYESASQISDFLTKYAYK | grew normally without an inhibition | certain level of tolerance | certain level of tolerance | certain level of tolerance | tolerance to compound A compared with the overexpressed wild-type PPO1 (Arabidopsis thaliana; [4]): much higher; tolerance to flumioxazin compared with the overexpressed wild-type PPO1 (Arabidopsis thaliana; [5]): much higher; tolerance to saflufenacil compared with the overexpressed wild-type PPO1 (Arabidopsis thaliana; [6]): much higher
3 | L424V/Y426L (protein, Amino-acid sequence of PPO1 from corn mutant (ZmPPO1 L424V/Y426L)) MVAATATATAMATAASPLLNGTRIPARLRHRGLSVRCAAVAGGAAEAPASTGARLSADCVVVGGGISGLCTAQALATRHGVGDVLVTEARARPGGNITTVERPEEGYLWEEGPNSFQPSDPVLTMAVDSGLKDDLVFGDPNAPRFVLWEGKLRPVPSKPADLPFFDLMSIPGKLRAGLGALGIRPPPPGREESVEEFVRRNLGAEVFERLIEPFCSGVYAGDPSKLSMKAAFGKVWRLEETGGSIIGGTIKTIQERSKNPKPPRDARLPKPKGQTVASFRKGLAMLPNAITSSLGSKVKLLWKLTSITKSDDKGYVLEYETPEGVVSVQAKSVIMTIPSYVASNILRPLSSDAADALSRFYYPPVAAVTVSYPKEAIRKECLIDGELQGFGQLHPRSQGVETLGTIYSSSLFPNRAPDGRVLLVNLIGGATNTGIVSKTESELVEAVDRDLRKMLINSTAVDPLVLGVRVWPQAIPQFLVGHLDLLEAAKAALDRGGYDGLFLGGNYVAGVALGRCVEGAYESASQISDFLTKYAYK | grew normally without an inhibition | – | – | – | –
4 | L423I (protein, Amino-acid sequence of PPO1 from rice mutant (OsPPO1 L423I)) MAAAAAAMATATSATAAPPLRIRDAARRTRRRGHVRCAVASGAAEAPAAPGARVSADCVVVGGGISGLCTAQALATKHGVGDVLVTEARARPGGNITTAERAGEGYLWEEGPNSFQPSDPVLTMAVDSGLKDDLVFGDPNAPRFVLWEGKLRPVPSKPGDLPFFDLMSIPGKLRAGLGALGVRAPPPGREESVEDFVRRNLGAEVFERLIEPFCSGVYAGDPSKLSMKAAFGKVWRLEDTGGSIIGGTIKTIQERGKNPKPPRDPRLPTPKGQTVASFRKGLTMLPDAITSRLGSKVKLSWKLTSITKSDNKGYALVYETPEGVVSVQAKTVVMTIPSYVASDILRPLSSDAADALSIFYYPPVAAVTVSYPKEAIRKECLIDGELQGFGQLHPRSQGVETLGTIYSSSLFPNRAPAGRVLLINYIGGSTNTGIVSKTESELVEAVDRDLRKMLINPKAVDPLVLGVRVWPQAIPQFLIGHLDHLEAAKSALGKGGYDGLFLGGNYVAGVALGRCVEGAYESASQISDYLTKYAYK | – | – | – | – | growth of ΔhemG transformant on LB medium containing compound A, compared with the wild type [2]: grew normally
5 | OsPPO1 WT: Amino-acid sequence of PPO1 from wild-type rice (protein, Amino-acid sequence of PPO1 from wild-type rice (OsPPO1 WT)) MAAAAAAMATATSATAAPPLRIRDAARRTRRRGHVRCAVASGAAEAPAAPGARVSADCVVVGGGISGLCTAQALATKHGVGDVLVTEARARPGGNITTAERAGEGYLWEEGPNSFQPSDPVLTMAVDSGLKDDLVFGDPNAPRFVLWEGKLRPVPSKPGDLPFFDLMSIPGKLRAGLGALGVRAPPPGREESVEDFVRRNLGAEVFERLIEPFCSGVYAGDPSKLSMKAAFGKVWRLEDTGGSIIGGTIKTIQERGKNPKPPRDPRLPTPKGQTVASFRKGLTMLPDAITSRLGSKVKLSWKLTSITKSDNKGYALVYETPEGVVSVQAKTVVMTIPSYVASDILRPLSSDAADALSIFYYPPVAAVTVSYPKEAIRKECLIDGELQGFGQLHPRSQGVETLGTIYSSSLFPNRAPAGRVLLLNYIGGSTNTGIVSKTESELVEAVDRDLRKMLINPKAVDPLVLGVRVWPQAIPQFLIGHLDHLEAAKSALGKGGYDGLFLGGNYVAGVALGRCVEGAYESASQISDYLTKYAYK | – | certain level of tolerance | certain level of tolerance | certain level of tolerance | tolerance/resistance to compound A compared with wild-type Huaidao No. 5 ([3]; T0 generation rice seedlings, compound A sprayed): certain level of tolerance/resistance; resistance compared with the wild-type control ([3]; compound A 135 g/ha and 270 g/ha): showed no difference

— patent US12655441B2, “PPO polypeptides tolerant to PPO-inhibiting herbicides and use thereof” (QINGDAO KINGAGROOT CHEMICAL COMPOUND CO., LTD., priority 2021, dated 2026)
